Reference: US20150185222A1 (TORAY INDUSTRIES, published 2015)

Legend:
[1] = molecular target: human CAPRIN-1 expressed on the surface of human cancer cells and in human cancer tissues (human) (UniProt Q14444); experiment: flow cytometry, 2 µg antibody on 8 human breast cancer cell lines (ZR75-1, MCF7, T47D, SK-BR-3, MDA-MB-157, BT-20, MDA-MB-231V, MRK-nu-1); control mouse IgG1
[2] = molecular target: T1, polypeptide consisting of the amino acid sequence of SEQ ID NO: 66 (human); experiment: trypsin or chymotrypsin digestion of antibody-CAPRIN-1 complex, protein G Sepharose, MS/MS of recovered peptides
T1 peptide: QQPQAASPSVPE
Procedure: The cancer cell surface-reactive mouse-chicken chimeric anti-human CAPRIN-1 monoclonal antibody #12 obtained in the paragraph (4) was used to identify a CAPRIN-1 epitope region recognized thereby. 100 μg of recombinant CAPRIN-1 proteins was dissolved in a protein inhibitor-free dissolving buffer and reacted with the mouse-chicken chimeric anti-human CAPRIN-1 monoclonal antibody #12. To this solution, a digestive enzyme trypsin or chymotrypsin was added, followed by digestion reaction at a suitable temperature. After the reaction, a protein G Sepharose carrier was added thereto, then reacted, and precipitated by centrifugation operation. After removal of the supernatant, the carrier was washed with a dissolving buffer and PBS and dissolved in 0.1% formic acid, and the supernatant was recovered. The recovered supernatant sample was applied to a reverse-phase column (HLB Extraction Cartridge (Waters-OASIS)) to obtain an antibody-free sample solution. The obtained sample was subjected to reverse-phase liquid chromatography (Chromatography Nanosytem (KYA Technologies Corp.)) to recover a solution containing only peptides. The solution was introduced to a tandem-type mass spectrometer Quadrupole-TOF Mass Spectrometer (Waters-MicroMass) and analyzed by MS/MS to detect the peptides contained in the sample. […]

[3] = molecular target: human CAPRIN-1 expressed on the surface of human cancer cells and in human cancer tissues (human) (UniProt Q14444); experiment: flow cytometry on human cancer cell lines Caki-1, Caki-2, A498, T24, SKOV3, QG56, PC3, Hela, HT1080, T98G, U87MG, MNK28, Lovo, Capan-2, MIAPaCa-2, Panc-1, BxPC-3; control mouse IgG1

rate of increase in mean fluorescence intensity (MFI) over control [1]: > 35%
binding result [2]: binds
rate of increase in mean fluorescence intensity (MFI) over control [3]: > 35%
B1: mouse-chicken chimeric anti-human CAPRIN-1 monoclonal antibody #12 (antibody, mouse IgG1, V domains shown)
VH: AVTLDESGGGLQMSRGGLSLVCKASGFDFSSYQMNWIRQAPGKGLEFVAAINKFGNSTGHGAAVKGRVTISRDNGQSTVRLQLNNLRAEDTAIYFCTKHAYGYCGSGTWCAAGEIDAWGHGTEVIVSS
VL: QAASTQPSSVSANPGETVEITCSGGGSYSYGWFQQKSPGSAPVTVIYYNNKRPSDIPSRFSGSKSGSTGTLTITGVQADDEAVYYCGSGDSTDTAVFGAGTTLTVLG
notes: Variable regions of chicken antibody #11 with the constant regions of mouse IgG1 (H chain and L chain constant regions); produced in CHO-K1; also called mouse-chicken anti-human CAPRIN-1 monoclonal antibody (#12)
